Experimental data from article PMC2685691 (The Journal of Biological Chemistry, 2009).
Several values for one entry are separate records, joined by “and”; a condition that tells them apart may be missing. Equal entries are not always repeated.

Key:
Assay in all cases: NMR titration
β3-integrin tail = β3-integrin tail (UniProt P05106)
talin F3 K324D (mouse) = talin F3 K324D (mouse) (UniProt P26039)
talin F3 Y377A (mouse) = talin F3 Y377A (mouse) (UniProt P26039)
[1] = target: U-15N-labeled talin F3 (309–405) (mouse, UniProt P26039 309-405)
[2] = target: talin 1655–1822 rod domain (mouse, UniProt P26039 1655-1822)
talin 1655–1822 S1684D = talin 1655–1822 S1684D (mouse, UniProt P26039 1655-1822, S1684D)
talin 1655–1822 Q1764A = talin 1655–1822 Q1764A (mouse, UniProt P26039 1655-1822, Q1764A)
talin 1655–1822 T1767A = talin 1655–1822 T1767A (mouse, UniProt P26039 1655-1822, T1767A)
talin 1655–1822 Y1777A = talin 1655–1822 Y1777A (mouse, UniProt P26039 1655-1822, Y1777A)
Sequence of talin 1655–1822 Y1777A (P26039 1655-1822 Y1777A): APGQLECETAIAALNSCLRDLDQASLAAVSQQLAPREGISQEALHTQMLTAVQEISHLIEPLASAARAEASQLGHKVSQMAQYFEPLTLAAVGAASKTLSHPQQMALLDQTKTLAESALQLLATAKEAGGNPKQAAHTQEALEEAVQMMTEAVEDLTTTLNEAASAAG

Sequence of talin 1655–1822 rod domain (mouse, UniProt P26039 1655-1822) (P26039 1655-1822): as the sequence (P26039 1655-1822 Y1777A) above, with A123Y counted along it
Sequence of talin 1655–1822 T1767A (P26039 1655-1822 T1767A): as the sequence (P26039 1655-1822 Y1777A) above, with T113A, A123Y counted along it
Sequence of talin 1655–1822 Q1764A (P26039 1655-1822 Q1764A): as the sequence (P26039 1655-1822 Y1777A) above, with Q110A, A123Y counted along it
Sequence of talin 1655–1822 S1684D (P26039 1655-1822 S1684D): as the sequence (P26039 1655-1822 Y1777A) above, with S30D, A123Y counted along it
Sequence of U-15N-labeled talin F3 (309–405) (P26039 309-405): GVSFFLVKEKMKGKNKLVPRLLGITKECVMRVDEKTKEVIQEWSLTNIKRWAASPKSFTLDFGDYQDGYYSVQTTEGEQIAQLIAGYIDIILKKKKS

Molecule: M319A F3 mutant (from UniProt P26039 309-405) (domain or fragment)
- Kd (β3-integrin tail): 225 µM

Molecule: talin 1655–1822 rod domain (from UniProt P26039 1655-1822) (domain or fragment)
- fold decrease in affinity against wild-type F3 (talin F3 K324D (mouse)): 23 fold
- fold decrease in binding affinity against wild-type F3 (talin F3 Y377A (mouse)): 5 fold

Molecule: KLLITIHDRKEFAKFEEERARAKWDTANNPLYKEATSTFTNITYRGT (domain or fragment) [β3-integrin tail]
- Kd [1]: 273 ± 6 µM

B1: talin F3 FERM subdomain (residues 309–400) (domain or fragment)
chain: GVSFFLVKEKMKGKNKLVPRLLGITKECVMRVDEKTKEVIQEWSLTNIKRWAASPKSFTLDFGDYQDGYYSVQTTEGEQIAQLIAGYIDIIL
- Kd [2]: 11 µM and 9 µM
- binding result (talin 1655–1822 S1684D): binds
- binding result (talin 1655–1822 Q1764A): binds
- binding result (talin 1655–1822 T1767A): binds
- binding result (talin 1655–1822 Y1777A): binds
